Measurements published in patent US20110300579A1 (UNIVERSITY OF SOUTHERN CALIFORNIA, published 2011).

Tests used:
[1] = target: purified soluble αvβ5 integrin (Millipore) (UniProt P06756 31-992; P18084 24-719)
[2] = target: purified soluble αvβ3 integrin (Millipore) (UniProt P06756 31-992; P05106 27-718)
[3] = target: soluble recombinant α5β1 integrin (R&D Systems) (UniProt P08648 42-995; P05556 21-728)
soluble recombinant α5β1 integrin (R&D Systems), sequence (P08648 42-995, chain 1 of 2): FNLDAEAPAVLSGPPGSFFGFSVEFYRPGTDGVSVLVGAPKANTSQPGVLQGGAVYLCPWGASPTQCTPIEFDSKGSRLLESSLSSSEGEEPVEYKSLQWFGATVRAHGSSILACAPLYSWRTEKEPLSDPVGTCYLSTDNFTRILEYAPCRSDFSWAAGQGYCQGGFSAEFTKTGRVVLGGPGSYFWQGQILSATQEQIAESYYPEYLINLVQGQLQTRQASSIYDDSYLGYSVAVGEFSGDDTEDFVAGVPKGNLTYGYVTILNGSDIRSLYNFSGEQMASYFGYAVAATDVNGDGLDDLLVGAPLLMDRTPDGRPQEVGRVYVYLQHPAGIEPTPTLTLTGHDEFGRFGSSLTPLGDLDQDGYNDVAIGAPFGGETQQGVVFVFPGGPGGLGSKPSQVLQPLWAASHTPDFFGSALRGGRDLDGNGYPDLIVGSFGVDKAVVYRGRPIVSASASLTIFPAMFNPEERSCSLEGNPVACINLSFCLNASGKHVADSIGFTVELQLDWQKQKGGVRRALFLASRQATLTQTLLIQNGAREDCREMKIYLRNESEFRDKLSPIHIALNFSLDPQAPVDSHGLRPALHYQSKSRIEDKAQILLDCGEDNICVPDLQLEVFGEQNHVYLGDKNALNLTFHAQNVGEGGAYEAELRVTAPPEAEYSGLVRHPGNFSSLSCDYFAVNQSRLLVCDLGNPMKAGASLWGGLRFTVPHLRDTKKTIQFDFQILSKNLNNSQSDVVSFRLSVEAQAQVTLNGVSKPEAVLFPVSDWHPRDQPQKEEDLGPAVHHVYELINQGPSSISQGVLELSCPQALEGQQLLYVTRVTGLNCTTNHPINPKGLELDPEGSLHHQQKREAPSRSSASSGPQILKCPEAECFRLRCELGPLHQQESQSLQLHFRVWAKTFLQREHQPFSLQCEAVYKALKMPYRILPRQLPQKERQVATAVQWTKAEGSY
soluble recombinant α5β1 integrin (R&D Systems), sequence (P05556 21-728, chain 2 of 2): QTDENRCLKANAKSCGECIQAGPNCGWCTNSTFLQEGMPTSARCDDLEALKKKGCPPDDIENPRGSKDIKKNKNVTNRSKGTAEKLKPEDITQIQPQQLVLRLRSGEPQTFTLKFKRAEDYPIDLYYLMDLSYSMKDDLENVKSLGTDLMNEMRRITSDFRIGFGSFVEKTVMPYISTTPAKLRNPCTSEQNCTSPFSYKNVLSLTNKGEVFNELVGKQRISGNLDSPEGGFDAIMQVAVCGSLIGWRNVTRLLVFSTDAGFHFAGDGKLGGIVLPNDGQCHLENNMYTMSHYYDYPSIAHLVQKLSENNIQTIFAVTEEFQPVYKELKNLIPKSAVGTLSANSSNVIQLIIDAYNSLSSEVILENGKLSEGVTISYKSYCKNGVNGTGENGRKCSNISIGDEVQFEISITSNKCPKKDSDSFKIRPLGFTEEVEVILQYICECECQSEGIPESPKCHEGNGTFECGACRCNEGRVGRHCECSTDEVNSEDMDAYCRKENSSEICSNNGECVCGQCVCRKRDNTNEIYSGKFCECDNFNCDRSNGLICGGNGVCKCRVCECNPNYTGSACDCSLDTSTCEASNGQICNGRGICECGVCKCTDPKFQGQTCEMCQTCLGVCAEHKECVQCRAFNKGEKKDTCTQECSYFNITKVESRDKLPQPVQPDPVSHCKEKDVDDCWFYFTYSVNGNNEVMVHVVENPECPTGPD

purified soluble αvβ3 integrin (Millipore), sequence (P06756 31-992, chain 1 of 2): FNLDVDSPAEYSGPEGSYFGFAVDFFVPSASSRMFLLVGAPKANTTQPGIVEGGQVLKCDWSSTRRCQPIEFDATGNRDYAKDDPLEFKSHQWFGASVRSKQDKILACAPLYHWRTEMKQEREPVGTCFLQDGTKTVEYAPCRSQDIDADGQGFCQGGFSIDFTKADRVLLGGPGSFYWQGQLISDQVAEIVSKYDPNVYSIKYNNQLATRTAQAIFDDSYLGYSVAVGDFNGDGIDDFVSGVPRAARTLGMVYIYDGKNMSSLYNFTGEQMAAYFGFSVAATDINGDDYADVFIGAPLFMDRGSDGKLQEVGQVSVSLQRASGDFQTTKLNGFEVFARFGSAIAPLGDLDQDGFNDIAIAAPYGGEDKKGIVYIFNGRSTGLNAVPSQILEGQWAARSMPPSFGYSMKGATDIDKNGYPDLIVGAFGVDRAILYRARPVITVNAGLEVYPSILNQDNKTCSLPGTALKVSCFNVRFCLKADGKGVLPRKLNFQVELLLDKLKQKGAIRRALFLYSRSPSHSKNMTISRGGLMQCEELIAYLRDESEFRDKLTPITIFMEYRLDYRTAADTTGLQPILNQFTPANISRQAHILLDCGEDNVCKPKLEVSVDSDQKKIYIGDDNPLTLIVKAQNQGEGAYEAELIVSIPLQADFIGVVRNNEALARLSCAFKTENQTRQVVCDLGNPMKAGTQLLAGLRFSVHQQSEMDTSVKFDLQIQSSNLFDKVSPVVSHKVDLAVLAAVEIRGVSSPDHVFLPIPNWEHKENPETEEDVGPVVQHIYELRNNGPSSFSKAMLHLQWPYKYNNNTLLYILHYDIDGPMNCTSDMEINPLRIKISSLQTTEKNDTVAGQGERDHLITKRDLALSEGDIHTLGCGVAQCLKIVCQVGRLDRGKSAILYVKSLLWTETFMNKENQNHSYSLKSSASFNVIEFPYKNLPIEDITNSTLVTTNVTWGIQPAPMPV
purified soluble αvβ3 integrin (Millipore), sequence (P05106 27-718, chain 2 of 2): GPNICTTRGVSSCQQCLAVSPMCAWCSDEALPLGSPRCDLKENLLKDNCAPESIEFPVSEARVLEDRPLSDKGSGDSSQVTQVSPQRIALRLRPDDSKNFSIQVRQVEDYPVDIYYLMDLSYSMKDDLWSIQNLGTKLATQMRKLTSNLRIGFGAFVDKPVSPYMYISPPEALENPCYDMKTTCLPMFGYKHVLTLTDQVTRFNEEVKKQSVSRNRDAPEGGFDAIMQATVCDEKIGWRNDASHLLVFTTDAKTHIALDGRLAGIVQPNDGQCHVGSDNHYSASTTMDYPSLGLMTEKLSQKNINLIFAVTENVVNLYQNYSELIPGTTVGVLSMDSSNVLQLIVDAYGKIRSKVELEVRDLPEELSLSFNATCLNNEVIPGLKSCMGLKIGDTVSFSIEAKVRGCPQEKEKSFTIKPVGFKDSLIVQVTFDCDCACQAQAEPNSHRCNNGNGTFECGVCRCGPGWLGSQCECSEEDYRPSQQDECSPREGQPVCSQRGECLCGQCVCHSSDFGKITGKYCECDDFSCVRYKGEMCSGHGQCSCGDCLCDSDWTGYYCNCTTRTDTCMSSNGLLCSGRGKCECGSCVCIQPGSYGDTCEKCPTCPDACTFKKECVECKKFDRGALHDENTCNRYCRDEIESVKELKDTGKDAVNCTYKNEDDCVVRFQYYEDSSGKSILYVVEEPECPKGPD
purified soluble αvβ5 integrin (Millipore), sequence (P06756 31-992, chain 1 of 2): as the sequence (P06756 31-992, chain 1 of 2) above
purified soluble αvβ5 integrin (Millipore), sequence (P18084 24-719, chain 2 of 2): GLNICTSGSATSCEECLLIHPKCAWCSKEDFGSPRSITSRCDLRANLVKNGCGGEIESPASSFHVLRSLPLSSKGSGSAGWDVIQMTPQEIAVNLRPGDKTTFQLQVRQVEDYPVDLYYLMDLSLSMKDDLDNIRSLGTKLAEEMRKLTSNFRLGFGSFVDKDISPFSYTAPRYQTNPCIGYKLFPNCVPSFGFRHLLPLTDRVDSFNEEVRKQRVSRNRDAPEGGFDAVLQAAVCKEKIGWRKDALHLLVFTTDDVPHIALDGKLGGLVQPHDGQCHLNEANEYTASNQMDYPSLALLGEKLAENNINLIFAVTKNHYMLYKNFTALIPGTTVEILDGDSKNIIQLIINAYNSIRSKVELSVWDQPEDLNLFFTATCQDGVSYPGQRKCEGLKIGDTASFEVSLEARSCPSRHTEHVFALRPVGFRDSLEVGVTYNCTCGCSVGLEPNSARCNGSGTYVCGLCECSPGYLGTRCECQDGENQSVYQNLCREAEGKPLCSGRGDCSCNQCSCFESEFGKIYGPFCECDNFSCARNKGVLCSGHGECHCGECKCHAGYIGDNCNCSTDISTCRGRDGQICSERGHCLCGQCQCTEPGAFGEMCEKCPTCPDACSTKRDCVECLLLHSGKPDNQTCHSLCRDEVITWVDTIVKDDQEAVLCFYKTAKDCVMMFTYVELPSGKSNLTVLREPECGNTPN

B1: Contortrostatin (CN), native, purified from Agkistrodon contortrix contortrix venom (ligand)
chain: DAPANPCCDAATCKLTTGSQCADGLCCDQCKFMKEGTVCRRARGDDLDDYCNGISAGCPRNPFH
- Kd [1]: 19.5 nM
- Kd [2]: 6.6 nM
- Kd [3]: 191 nM
